Experimental data reported in patent publication US20220040319A1 (Regeneron, published 2022).

Assays:
[1] = target: T1, human MET on cells (human, UniProt P08581 25-1390); experiment: cell-based or functional assay
[2] = target: T1, human MET on cells; experiment: cell-based or functional assay; remark: listed apart in the source
[3] = target: T1, human MET on cells; experiment: cell-based or functional assay; remark: listed apart in the source
[4] = target: T2, hMet.mmh (human MET extracellular domain with C-terminal myc-myc-hexahistidine tag) (human, UniProt P08581 309-914; P08581 27-307); experiment: SPR 37C, antibody captured
T2 construct: soluble monomeric MET; also called monomeric human MET
T2 sequence (P08581 other isoform, or with tags, fused parts or gaps limits assumed, chain 1 of 2): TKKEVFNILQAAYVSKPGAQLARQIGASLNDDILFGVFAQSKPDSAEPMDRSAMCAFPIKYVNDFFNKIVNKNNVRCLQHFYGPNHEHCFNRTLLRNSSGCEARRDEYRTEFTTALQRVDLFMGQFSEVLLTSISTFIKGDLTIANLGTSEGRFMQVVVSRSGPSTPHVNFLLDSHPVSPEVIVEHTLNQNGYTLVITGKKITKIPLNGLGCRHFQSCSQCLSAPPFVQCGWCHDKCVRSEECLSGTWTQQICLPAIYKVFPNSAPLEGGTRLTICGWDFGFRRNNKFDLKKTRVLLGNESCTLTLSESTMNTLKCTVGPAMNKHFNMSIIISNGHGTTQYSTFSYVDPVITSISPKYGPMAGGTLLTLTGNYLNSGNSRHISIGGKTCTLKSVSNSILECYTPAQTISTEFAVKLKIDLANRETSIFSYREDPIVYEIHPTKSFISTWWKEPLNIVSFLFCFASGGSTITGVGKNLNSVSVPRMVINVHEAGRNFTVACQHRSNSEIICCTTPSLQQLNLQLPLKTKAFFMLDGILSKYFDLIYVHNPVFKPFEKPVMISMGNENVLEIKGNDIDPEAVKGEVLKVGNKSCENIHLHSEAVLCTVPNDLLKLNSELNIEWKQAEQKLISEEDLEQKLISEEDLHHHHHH
T2 sequence (P08581 27-307 limits assumed, chain 2 of 2): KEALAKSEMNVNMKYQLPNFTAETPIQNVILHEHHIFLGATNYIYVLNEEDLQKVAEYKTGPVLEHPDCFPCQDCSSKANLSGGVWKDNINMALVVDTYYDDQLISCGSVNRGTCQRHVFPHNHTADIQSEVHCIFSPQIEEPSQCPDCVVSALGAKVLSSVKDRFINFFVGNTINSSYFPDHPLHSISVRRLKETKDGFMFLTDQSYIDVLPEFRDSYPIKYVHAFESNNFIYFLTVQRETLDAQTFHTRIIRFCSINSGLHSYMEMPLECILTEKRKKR
Procedure: Kinetic association (kₐ) and dissociation (kd) rate constants were determined as described in Example 3.
Throughout, for % Inhibition, HEK293/SRE-Luc Blocking Activity (HGF, 1 h mAb pre-bind): test concentration or dose not given here.

T1 sequence (P08581 25-1390 limits assumed, form in doubt): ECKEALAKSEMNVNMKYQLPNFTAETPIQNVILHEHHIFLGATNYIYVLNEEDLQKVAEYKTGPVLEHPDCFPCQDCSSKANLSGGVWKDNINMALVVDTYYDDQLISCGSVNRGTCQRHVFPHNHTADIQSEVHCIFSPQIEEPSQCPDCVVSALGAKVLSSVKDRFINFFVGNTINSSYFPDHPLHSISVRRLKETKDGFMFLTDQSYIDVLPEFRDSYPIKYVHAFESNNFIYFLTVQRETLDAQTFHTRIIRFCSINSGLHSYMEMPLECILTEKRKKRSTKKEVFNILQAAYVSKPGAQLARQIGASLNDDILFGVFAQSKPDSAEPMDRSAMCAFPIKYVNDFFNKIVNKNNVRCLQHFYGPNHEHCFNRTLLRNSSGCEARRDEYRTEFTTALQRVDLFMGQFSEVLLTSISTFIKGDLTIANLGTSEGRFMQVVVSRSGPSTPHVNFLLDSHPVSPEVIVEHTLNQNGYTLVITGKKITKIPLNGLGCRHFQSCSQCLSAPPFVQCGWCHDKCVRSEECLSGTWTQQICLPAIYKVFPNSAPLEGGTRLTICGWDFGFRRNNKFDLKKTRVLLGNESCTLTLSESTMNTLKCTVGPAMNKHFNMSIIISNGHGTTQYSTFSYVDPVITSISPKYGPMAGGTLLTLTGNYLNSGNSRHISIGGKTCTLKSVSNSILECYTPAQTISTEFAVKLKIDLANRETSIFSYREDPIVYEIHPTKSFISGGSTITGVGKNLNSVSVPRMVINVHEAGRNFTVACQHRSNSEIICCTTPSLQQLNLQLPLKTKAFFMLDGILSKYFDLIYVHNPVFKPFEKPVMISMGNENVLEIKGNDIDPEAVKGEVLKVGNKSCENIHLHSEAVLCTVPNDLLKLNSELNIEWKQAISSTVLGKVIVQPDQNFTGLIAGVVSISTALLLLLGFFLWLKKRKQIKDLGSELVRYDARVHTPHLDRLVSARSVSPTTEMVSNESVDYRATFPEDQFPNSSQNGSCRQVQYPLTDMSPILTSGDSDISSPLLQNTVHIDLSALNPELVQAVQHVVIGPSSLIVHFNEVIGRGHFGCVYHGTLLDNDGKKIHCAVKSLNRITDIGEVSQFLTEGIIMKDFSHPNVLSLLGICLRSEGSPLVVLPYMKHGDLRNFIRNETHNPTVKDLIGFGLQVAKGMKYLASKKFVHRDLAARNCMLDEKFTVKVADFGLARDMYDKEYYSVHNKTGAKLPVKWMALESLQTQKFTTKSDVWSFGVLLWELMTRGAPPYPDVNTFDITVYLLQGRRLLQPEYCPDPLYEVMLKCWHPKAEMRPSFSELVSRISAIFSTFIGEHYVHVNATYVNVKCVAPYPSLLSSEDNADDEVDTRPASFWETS

B1: H4H13312P2 (antibody, human IgG4, V domains shown)
VH: EVQLVESGGGLVQPGGSLRLSCAASGFIVTTNYMTWLRQAPGKGLEWVSLIYSSGHTYYADSVKGRFTISRHNSKNTLYLQMDSLRAEDTAVYYCASAFAADVFDIWGQGTMVTVSS
VL: not shown
IC50, 6-day in vitro cytotoxicity, A549 [1]: > 100 nM
IC50, 6-day in vitro cytotoxicity, EBC-1 [1]: > 100 nM
IC50, 6-day in vitro cytotoxicity, Hs746t [1]: > 100 nM
Max % Kill, 6-day in vitro cytotoxicity, A549 [1]: 7%
Max % Kill, 6-day in vitro cytotoxicity, EBC-1 [1]: 30%
Max % Kill, 6-day in vitro cytotoxicity, Hs746t [1]: 0%
% Growth Inhibition, SNU5 cells [2]: 69%
IC50, SNU5 growth [2]: 0.78 nM
% Inhibition, HEK293/SRE-Luc Blocking Activity (HGF, 1 h mAb pre-bind) [3]: 48%
EC50, Ligand (HGF)-Independent HEK293/SRE-Luc Activation [3]: 0.12 nM

B2: H4H16446D (bispecific antibody, human IgG4, V domains shown)
VH 1: QVQLVESGGGVVQPGRSLRLSCAVSGFTFSSYGMHWVRQAPGKGLEWVANIWYDGTNDYYPYSVKGRFTISRDNSQNTLYLQMNSLRAEDTAVYYCAREDFINYRSFDYWGQGTLVTVSS
VH 2: EVQLVESGGGLVQPGGSLRLSCAASGFIVTTNYMTWLRQAPGKGLEWVSLIYSSGHTYYADSVKGRFTISRHNSKNTLYLQMDSLRAEDTAVYYCASAFAADVFDIWGQGTMVTVSS
VL: not shown
notes: MET x MET bispecific, expressed as human IgG4; also called bispecific antibody No. 58
T½ [4]: 1.86 h
koff [4]: 0.000103 s⁻¹

B3: H4H14636D (bispecific antibody, human IgG4, V domains shown)
VH 1: EVQLVESGGGLVQPGGSLRLSCAASGFIFSNYEMNWVRQAPGKGLEWISYITSSGNMKYYADSVKGRFTISRDNDKNSLYLQMSSLRVEDTAVYYCVRGGRFLEWLTYYVMVVWGQGTTVTVSS
VH 2: EVQLVESGGGLVQPGGSLRLSCAASGFIVTTNYMTWLRQAPGKGLEWVSLIYSSGHTYYADSVKGRFTISRHNSKNTLYLQMDSLRAEDTAVYYCASAFAADVFDIWGQGTMVTVSS
VL: not shown
notes: MET x MET bispecific, expressed as human IgG4; also called bispecific antibody No. 74
T½ [4]: ≥ 19.2 h
koff [4]: ≤ 1e-05 s⁻¹

B4: H4H14635D (bispecific antibody, human IgG4, V domains shown)
VH 1: QVQLVESGGGVVQPGRSLRVSCVVSGFTFSSFGMHWVRQAPDKGLEWVAVIWYDGSNDYYSDSVKGRFTISRDNSKNTLFLQMNRLRAEDTAVYYCARANNWNRFDAFDLWGQGTMVTVSS
VH 2: EVQLVESGGGLVQPGGSLRLSCAASGFIVTTNYMTWLRQAPGKGLEWVSLIYSSGHTYYADSVKGRFTISRHNSKNTLYLQMDSLRAEDTAVYYCASAFAADVFDIWGQGTMVTVSS
VL: not shown
notes: MET x MET bispecific, expressed as human IgG4; also called bispecific antibody No. 42
T½ [4]: 2.34 h
koff [4]: 8.21e-05 s⁻¹

B5: H4H16445D (bispecific antibody, human IgG4, V domains shown)
VH 1: QVQLVESGGGVVQPGGSLRLSCAASGFTFSGYGMHWVRQAPGKGLEWMAVIWYDGSNDYYPDSVKGRFTISRDNSKNTLYLQMNSLRVEDTAVYYCARDAWDLLRSFDYWGQGTLVTVSS
VH 2: EVQLVESGGGLVQPGGSLRLSCAASGFIVTTNYMTWLRQAPGKGLEWVSLIYSSGHTYYADSVKGRFTISRHNSKNTLYLQMDSLRAEDTAVYYCASAFAADVFDIWGQGTMVTVSS
VL: not shown
notes: MET x MET bispecific, expressed as human IgG4; also called bispecific antibody No. 26
T½ [4]: 0.49 h
koff [4]: 0.000393 s⁻¹

B6: H4H16447D (bispecific antibody, human IgG4, V domains shown)
VH 1: QVQLVESGGGVVQPGRSLRLSCAASGFTFSSYAMHWVRQAPGRGLEWVAVIWHDGDVEYYVDSVKDRFTISRDNSKSTLYLQMNSLRAEDTALYYCAREAWDLLRPFDYWGQGTLVTVSS
VH 2: EVQLVESGGGLVQPGGSLRLSCAASGFIVTTNYMTWLRQAPGKGLEWVSLIYSSGHTYYADSVKGRFTISRHNSKNTLYLQMDSLRAEDTAVYYCASAFAADVFDIWGQGTMVTVSS
VL: not shown
notes: MET x MET bispecific, expressed as human IgG4; also called bispecific antibody No. 154
T½ [4]: 0.227 h

B7: H4H16448D (bispecific antibody, human IgG4, V domains shown)
VH 1: QVQLVESGGGVVQPGRSLRLSCVASGFSFSNFGMHWVRQAPGKGLEWVAIIWYDGSNKYYSDSVKGRFTISRDNSKNTLYLQMNSLRVDDTAVYYCARFDRWKFDAFDIWGQGTMVTVSS
VH 2: EVQLVESGGGLVQPGGSLRLSCAASGFIVTTNYMTWLRQAPGKGLEWVSLIYSSGHTYYADSVKGRFTISRHNSKNTLYLQMDSLRAEDTAVYYCASAFAADVFDIWGQGTMVTVSS
VL: not shown
notes: MET x MET bispecific, expressed as human IgG4; also called bispecific antibody No. 219
T½ [4]: 0.325 h
koff [4]: 0.000592 s⁻¹

B8: H4H14640D (bispecific antibody, human IgG4, V domains shown)
VH 1: QVQLVQSGTEVKEPGASVKVSCKASGYSFTTYGISWLRQAPGQGLEWMGWISTYNGDTISAQMLQDRVTLTADTSTRTAYMELRSLRSDDTAVYYCARGHEYDSLVYSYWGQGTLVTVSS
VH 2: EVQLVESGGGLVQPGGSLRLSCAASGFIVTTNYMTWLRQAPGKGLEWVSLIYSSGHTYYADSVKGRFTISRHNSKNTLYLQMDSLRAEDTAVYYCASAFAADVFDIWGQGTMVTVSS
VL: not shown
notes: MET x MET bispecific, expressed as human IgG4; also called bispecific antibody No. 138
T½ [4]: ≥ 19.2 h
koff [4]: ≤ 1e-05 s⁻¹

B9: H4H13299P2 (antibody, human IgG4, V domains shown)
VH: EVQLVESGGGLVQPGGSLRLSCAASGFIFSNYEMNWVRQAPGKGLEWISYITSSGNMKYYADSVKGRFTISRDNDKNSLYLQMSSLRVEDTAVYYCVRGGRFLEWLTYYVMVVWGQGTTVTVSS
VL: not shown
% Growth Inhibition, SNU5 cells [2]: -8%
% Inhibition, HEK293/SRE-Luc Blocking Activity (HGF, 1 h mAb pre-bind) [3]: 51%
EC50, Ligand (HGF)-Independent HEK293/SRE-Luc Activation [3]: 0.0037 nM
Fold Response, Ligand (HGF)-Independent HEK293/SRE-Luc Activation [3]: 14.4 fold
